In US20200157190A1 one finds ELISA plate reading data, which are given here for 1 molecule.

Assay [1] deals with Antigen 1. Briefly: ELISA, supernatant 1 TO 4, Plate 1 (Antigen 1), column 3, BLANK 0.07. Background: ELISA stands for enzyme-linked immunosorbent assay.
Assay [2] concerns the target Antigen 2. In words: ELISA, supernatant 1 TO 4, Plate 2 (Antigen 2), column 3, BLANK 0.06.
Assay [3] concerns the target Antigen 1. In words: ELISA, supernatant 1 TO 16, Plate 1 (Antigen 1), column 3, BLANK 0.07.
The target in assay [4] is Antigen 2. Briefly: ELISA, supernatant 1 TO 16, Plate 2 (Antigen 2), column 3, BLANK 0.06.
For assay [5], the target named is Antigen 1. In words: ELISA, supernatant 1 TO 64, Plate 1 (Antigen 1), column 3, BLANK 0.07.
For assay [6], the target named is Antigen 2. In words: ELISA, supernatant 1 TO 64, Plate 2 (Antigen 2), column 3, BLANK 0.06.
The target in assay [7] is Antigen 1. In words: ELISA, supernatant 1 TO 256, Plate 1 (Antigen 1), column 3, BLANK 0.07.
Assay [8] deals with Antigen 2. In words: ELISA, supernatant 1 TO 256, Plate 2 (Antigen 2), column 3, BLANK 0.06.
For assay [9], the target named is Antigen 1. In words: ELISA, supernatant 1 TO 1024, Plate 1 (Antigen 1), column 3, BLANK 0.07.
Assay [10] concerns the target Antigen 2. In words: ELISA, supernatant 1 TO 1024, Plate 2 (Antigen 2), column 3, BLANK 0.06.
For assay [11], the target named is Antigen 1. Briefly: ELISA, supernatant 1 TO 4096, Plate 1 (Antigen 1), column 3, BLANK 0.07.
Assay [12] has as its target Antigen 2. Briefly: ELISA, supernatant 1 TO 4096, Plate 2 (Antigen 2), column 3, BLANK 0.06.
The target of assay [13] is Antigen 1. Briefly: ELISA, supernatant UNDILUTED, Plate 1 (Antigen 1), column 3, BLANK 0.07.
The target in assay [14] is Antigen 2. Briefly: ELISA, supernatant UNDILUTED, Plate 2 (Antigen 2), column 3, BLANK 0.06.

B1: Heavy Chain Construct 4 with Light Chain Construct 2 (VH2-VH1/VL2) (antibody)
heavy: QSLEESGGRLVSPGTPLTLTCTASGFSLSSNAMGWVRQAPGEGLEYIGIIRPGGSTYYASWAKGRFTISKTSSTTVDLKMTSLTTEDTATYFCARAWDIWGPGTLVTVSLGQPKAPSVFPLAPCCGDTPSSTVTLGCLVKGYLPEPVTVTWNSGTLTNGVRTFPSVRQSSGLYSLSSVVSVTSSSQPVTCNVAHPATNTKVDKTVAPSTCSKPTCPPPELLGGRPQPQPQPQPQPQPQPQPQPQPQPQPQPQPQPQSRQSVEESGGRLVTPGTPLTLTCTVSGFSLNTNAIRWVRQAPGKGLEWIGAIDASGNTYYASWAKGRFTISKTSTTVDLKITSPTTEDTATYFCNRFNTANIWGPGTLVTVSSGQPKAPSVFPLAPCCGDTPSSTVTLGCLVKGYLPEPVTVTWNSGTLTNGVRTFPSVRQSSGLYSLSSVVSVTSSSQPVTCNVAHPATNTKVDKTVAPSTCSKPTCPPPELLGGPSVFIFPPKPKDTLMISRTPEVTCVVVDVSQDDPEVQFTWYINNEQVRTARPPLREQQFNSTIRVVSTLPIAHQDWLRGKEFKCKVHNKALPAPIEKTISKARGQPLEPKVYTMGPPREELSSRSVSLACMINGFYPSDISVEWEKNGKAEDNYKTTPAVLDSDGSYFLYSKLSVPTSEWQRGDVFTCSVMHEALHNHYTQKSISRSPGK
light: AFELTQTPSSVEAAVGGTVTIRCQASQSISNQLSWYQQKPGQPPKRLIYRASTLASGVPARFKGSGSGTAFTLTISDLECADGATYYCQSFYYTDVIDYNAFGGGTEVVVTGDPVAPTVLIFPPAADQVATGTVTIVCVANKYFPDVTVTWEVDGTTQTTGIENSKTPQNSADCTYNLSSTLTLTSTQYNSHKEYTCKVTQGTTSVVQSFNRGDC
With B1, the ELISA plate reading in the assay with Antigen 1 [1] was 0.45; in the assay with Antigen 2 [2] it was 1.81; with Antigen 1 [3], 0.16; in the assay with Antigen 2 [4], 1.61; with Antigen 1 [5], 0.1; with Antigen 2 [6], 1.24. For the same molecule, the ELISA plate reading amounted to 0.07 with Antigen 1 [7]; 0.52 with Antigen 2 [8]; 0.06 with Antigen 1 [9]; 0.21 in the assay with Antigen 2 [10]; 0.08 with Antigen 1 [11]; 0.14 in the assay with Antigen 2 [12]. Moreover, the ELISA plate reading in the assay with Antigen 1 [13] was 0.66; with Antigen 2 [14], 2.49.
